In patent US20140072613A1, “Compositions and Methods for Treating Cutaneous Scarring” (priority 2012, published 2014) one finds % activity, 100 µM and inhibition of kinase activity data, which are given here for one substance.

Common to all, as to assay: cell-based or functional assay
The target in test [1] is 6SK3β(h) (human) (UniProt P49841).
Test [2] concerns the target BTK(R28H)(h) (human) (UniProt Q06187).
Test [3] deals with CaMKI(h) (human) (UniProt Q14012).
Test [4] has as its target EphB4(h) (human) (UniProt P54760).
The target in test [5] is FGFR3(h) (human) (UniProt P22607).
Test [6] addresses FGFR4(h) (human) (UniProt P22455).
Test [7] addresses T1, Haspin(h) (human) (UniProt Q8TF76).
T1 sequence (looked up): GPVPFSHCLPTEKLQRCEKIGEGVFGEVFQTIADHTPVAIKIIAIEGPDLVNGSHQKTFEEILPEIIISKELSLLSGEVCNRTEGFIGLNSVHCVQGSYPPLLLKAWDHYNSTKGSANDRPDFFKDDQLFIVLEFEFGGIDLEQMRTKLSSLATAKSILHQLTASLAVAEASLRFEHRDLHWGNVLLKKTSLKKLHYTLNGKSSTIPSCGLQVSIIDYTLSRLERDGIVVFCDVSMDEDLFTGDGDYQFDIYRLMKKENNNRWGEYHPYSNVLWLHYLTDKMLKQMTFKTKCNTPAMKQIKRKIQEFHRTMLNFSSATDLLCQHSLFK

For test [8], the target named is Lyn(h) (human) (UniProt P07948).
In test [9] the target is MEK1(h) (human) (UniProt Q02750).
Test [10] has as its target MELK(h) (human) (UniProt Q14680).
Test [11] has as its target MRCKα(h) (human) (UniProt Q5VT25).
For test [12], the target named is Met(D1246N)(h) (human) (UniProt P08581).
The target of test [13] is Mnk2(h) (human) (UniProt Q9HBH9).
For test [14], the target named is PAK5(h) (human) (UniProt Q9P286).
The target in test [15] is PKA(h) (human) (UniProt P17612).
Test [16] concerns the target T2, PKG1β(h) (human) (UniProt Q13976).
T2 sequence (looked up): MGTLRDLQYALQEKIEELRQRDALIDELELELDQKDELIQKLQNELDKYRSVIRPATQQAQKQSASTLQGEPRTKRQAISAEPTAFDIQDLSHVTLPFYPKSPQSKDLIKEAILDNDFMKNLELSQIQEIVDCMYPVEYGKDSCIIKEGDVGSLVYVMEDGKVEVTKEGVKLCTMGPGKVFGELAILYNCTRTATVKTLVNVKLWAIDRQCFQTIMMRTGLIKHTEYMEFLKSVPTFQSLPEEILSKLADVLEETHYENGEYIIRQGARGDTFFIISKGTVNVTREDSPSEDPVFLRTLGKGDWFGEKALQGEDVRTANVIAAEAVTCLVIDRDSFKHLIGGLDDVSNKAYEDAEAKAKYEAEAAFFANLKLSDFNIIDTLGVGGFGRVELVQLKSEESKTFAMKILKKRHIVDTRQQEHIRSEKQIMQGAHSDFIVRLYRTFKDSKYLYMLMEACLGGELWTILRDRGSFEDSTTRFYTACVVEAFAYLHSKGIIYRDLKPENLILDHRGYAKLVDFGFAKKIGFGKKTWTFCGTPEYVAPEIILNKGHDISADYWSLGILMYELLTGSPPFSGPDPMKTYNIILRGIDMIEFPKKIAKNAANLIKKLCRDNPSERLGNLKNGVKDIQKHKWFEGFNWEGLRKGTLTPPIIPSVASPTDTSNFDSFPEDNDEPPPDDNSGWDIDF

Test [17] concerns the target PRK2(h) (human) (UniProt Q16513).
The target of test [18] is Pim-3(h) (human) (UniProt Q86V86).
Test [19] concerns the target SAPK2a(T106M)(h) (human) (UniProt Q16539).
Test [20] addresses T3, SAPK4(h) (human) (UniProt O15264).
T3 sequence (looked up): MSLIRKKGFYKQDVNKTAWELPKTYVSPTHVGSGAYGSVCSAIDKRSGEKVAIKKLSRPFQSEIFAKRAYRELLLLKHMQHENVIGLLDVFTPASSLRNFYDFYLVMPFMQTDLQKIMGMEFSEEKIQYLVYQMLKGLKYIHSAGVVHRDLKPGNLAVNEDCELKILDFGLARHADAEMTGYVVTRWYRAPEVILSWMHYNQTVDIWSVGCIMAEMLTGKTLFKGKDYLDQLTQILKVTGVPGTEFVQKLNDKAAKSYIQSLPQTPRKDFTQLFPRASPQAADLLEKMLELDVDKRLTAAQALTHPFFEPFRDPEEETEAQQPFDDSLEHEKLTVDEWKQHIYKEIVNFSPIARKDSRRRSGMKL

In test [21] the target is cKit(V560G)(h) (human) (UniProt P10721).
Test [22] addresses cSRC(h) (human) (UniProt P12931).

CaMKI(h) (human), sequence (Q14012 whole entry): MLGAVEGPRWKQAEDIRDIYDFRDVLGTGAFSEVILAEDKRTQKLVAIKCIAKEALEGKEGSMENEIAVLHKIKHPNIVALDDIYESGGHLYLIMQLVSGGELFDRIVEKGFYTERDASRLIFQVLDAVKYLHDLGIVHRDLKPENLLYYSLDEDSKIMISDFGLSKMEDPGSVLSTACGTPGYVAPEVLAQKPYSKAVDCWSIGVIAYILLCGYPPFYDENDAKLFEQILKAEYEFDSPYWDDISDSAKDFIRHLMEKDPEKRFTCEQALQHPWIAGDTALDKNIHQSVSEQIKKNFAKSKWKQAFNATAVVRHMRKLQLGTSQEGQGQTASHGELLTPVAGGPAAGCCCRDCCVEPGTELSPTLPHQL
EphB4(h) (human), sequence (P54760 561-987 limits assumed): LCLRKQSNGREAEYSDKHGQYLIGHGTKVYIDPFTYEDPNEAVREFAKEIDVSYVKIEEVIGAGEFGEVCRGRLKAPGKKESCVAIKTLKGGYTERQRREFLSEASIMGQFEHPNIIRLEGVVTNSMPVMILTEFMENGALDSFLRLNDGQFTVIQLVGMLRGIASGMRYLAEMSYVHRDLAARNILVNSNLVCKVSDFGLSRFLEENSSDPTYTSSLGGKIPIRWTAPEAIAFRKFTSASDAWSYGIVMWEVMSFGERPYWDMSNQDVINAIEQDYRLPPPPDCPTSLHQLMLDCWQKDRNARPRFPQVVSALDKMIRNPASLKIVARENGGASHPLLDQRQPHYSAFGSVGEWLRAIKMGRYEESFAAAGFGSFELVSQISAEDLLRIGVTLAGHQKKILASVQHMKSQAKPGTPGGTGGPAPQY
Lyn(h) (human), sequence (P07948 whole entry): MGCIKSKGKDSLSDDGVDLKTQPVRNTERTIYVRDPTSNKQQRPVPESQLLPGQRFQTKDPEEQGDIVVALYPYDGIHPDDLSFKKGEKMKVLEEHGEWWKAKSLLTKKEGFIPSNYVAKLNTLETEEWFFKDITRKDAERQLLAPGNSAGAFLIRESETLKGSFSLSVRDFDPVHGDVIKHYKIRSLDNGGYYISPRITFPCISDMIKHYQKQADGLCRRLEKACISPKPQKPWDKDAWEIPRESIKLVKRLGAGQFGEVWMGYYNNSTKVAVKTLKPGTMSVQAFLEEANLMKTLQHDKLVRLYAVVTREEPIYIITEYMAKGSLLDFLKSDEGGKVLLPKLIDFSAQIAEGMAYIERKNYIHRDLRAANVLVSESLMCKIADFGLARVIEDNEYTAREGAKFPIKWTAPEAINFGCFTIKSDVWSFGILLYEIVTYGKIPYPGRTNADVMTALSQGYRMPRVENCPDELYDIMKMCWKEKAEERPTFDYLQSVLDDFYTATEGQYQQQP
6SK3β(h) (human), sequence (P49841 whole entry): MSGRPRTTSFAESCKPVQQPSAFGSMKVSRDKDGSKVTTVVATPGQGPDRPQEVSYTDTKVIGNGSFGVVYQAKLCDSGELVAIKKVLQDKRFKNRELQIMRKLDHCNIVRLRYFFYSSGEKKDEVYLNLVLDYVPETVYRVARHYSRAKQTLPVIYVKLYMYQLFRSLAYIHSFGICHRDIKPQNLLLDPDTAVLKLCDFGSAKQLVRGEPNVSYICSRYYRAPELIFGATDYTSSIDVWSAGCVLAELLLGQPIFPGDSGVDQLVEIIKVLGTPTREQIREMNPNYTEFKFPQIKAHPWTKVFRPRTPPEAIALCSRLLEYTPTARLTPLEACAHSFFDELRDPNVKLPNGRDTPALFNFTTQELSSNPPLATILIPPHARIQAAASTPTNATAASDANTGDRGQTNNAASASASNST
Mnk2(h) (human), sequence (Q9HBH9 whole entry): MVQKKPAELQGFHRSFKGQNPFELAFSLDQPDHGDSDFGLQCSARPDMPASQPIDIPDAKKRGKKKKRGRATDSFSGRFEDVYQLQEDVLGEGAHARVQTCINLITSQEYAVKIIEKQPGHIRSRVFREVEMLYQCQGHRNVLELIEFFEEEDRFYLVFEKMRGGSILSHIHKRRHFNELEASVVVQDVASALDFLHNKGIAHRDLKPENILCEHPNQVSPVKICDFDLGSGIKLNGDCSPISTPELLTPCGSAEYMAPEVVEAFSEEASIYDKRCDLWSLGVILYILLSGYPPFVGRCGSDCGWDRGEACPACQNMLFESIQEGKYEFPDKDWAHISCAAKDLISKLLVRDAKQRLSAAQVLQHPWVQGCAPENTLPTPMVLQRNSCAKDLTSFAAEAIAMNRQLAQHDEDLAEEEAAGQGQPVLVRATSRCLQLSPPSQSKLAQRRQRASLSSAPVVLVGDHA
PRK2(h) (human), sequence (Q16513 501-984 limits assumed): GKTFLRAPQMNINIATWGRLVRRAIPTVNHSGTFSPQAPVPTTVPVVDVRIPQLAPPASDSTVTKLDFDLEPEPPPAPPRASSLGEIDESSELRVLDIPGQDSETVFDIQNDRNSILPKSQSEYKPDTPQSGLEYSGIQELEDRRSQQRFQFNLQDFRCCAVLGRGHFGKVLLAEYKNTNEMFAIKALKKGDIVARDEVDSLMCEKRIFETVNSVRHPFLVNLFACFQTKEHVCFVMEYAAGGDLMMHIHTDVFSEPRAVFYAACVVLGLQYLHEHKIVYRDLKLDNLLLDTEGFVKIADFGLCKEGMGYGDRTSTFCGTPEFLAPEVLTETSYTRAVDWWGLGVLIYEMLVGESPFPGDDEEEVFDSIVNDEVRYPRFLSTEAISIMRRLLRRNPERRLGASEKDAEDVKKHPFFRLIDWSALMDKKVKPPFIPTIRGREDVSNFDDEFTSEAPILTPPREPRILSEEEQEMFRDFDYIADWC
MELK(h) (human), sequence (Q14680 1-340 limits assumed): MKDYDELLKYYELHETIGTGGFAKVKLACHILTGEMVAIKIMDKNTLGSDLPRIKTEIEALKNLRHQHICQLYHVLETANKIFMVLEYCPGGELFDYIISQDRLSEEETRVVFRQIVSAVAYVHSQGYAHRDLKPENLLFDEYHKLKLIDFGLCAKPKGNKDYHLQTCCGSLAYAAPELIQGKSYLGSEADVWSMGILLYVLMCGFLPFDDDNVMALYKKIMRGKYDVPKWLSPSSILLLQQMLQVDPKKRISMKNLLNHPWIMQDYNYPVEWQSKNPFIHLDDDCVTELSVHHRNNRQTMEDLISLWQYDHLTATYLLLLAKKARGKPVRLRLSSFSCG
FGFR4(h) (human), sequence (P22455 460-802 limits assumed): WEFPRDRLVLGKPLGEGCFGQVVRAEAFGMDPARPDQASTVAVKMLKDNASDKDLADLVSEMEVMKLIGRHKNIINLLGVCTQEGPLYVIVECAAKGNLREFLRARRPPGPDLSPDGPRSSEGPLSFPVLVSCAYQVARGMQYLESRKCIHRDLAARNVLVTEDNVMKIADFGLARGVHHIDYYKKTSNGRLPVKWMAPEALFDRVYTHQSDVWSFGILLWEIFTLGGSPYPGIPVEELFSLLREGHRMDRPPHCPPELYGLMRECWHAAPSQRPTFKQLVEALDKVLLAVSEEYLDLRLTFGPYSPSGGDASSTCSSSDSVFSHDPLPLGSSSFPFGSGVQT
cKit(V560G)(h) (human), sequence (P10721 544-976 V560G): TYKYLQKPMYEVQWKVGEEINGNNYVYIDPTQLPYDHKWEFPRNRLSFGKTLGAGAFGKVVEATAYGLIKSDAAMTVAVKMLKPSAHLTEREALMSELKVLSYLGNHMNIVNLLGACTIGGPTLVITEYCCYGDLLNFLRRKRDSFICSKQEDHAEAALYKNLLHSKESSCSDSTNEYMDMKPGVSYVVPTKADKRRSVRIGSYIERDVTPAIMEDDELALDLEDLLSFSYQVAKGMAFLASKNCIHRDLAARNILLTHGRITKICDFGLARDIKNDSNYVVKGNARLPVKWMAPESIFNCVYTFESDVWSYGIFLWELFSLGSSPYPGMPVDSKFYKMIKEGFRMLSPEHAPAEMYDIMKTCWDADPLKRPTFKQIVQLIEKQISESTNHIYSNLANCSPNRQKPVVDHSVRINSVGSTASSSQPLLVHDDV
BTK(R28H)(h) (human), sequence (Q06187 whole entry R28H): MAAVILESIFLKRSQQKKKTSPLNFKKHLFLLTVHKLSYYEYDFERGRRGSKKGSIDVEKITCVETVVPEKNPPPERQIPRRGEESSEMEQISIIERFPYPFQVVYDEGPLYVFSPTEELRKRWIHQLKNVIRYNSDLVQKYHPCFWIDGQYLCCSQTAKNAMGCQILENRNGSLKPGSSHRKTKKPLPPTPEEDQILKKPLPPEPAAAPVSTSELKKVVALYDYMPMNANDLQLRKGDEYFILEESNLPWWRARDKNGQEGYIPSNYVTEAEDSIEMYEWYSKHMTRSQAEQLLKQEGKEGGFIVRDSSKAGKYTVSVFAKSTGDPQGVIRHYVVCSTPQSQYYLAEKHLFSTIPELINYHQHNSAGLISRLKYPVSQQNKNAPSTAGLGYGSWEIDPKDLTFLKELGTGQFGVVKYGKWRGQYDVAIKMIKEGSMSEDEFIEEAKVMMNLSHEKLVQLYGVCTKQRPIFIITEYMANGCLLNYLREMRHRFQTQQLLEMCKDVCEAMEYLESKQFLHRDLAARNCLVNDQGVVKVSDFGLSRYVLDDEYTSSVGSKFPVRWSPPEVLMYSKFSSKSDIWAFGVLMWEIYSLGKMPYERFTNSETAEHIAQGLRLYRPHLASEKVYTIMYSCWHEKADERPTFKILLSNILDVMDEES

MMI-0500 (peptide): the % activity, 100 µM in test [1] was 238%; in test [2], 10%; in test [3], -1%; in [4] it was 38%; in test [5], 10%; in test [6] it was 3%. Besides, the % activity, 100 µM amounted to 25% in test [7]; 31% in test [8]; 21% in [9]; 0% in test [10]; 5% in test [11]; 90% in test [12]. Besides, the % activity, 100 µM amounted to 6% in test [13]; 125% in [14]; 118% in test [15]; 24% in test [16]; 7% in test [17]; 37% in [18]. Further, the % activity, 100 µM in test [19] was found to be 32%; in [20], 48%; in [21], 198%; in [22], 30%. The inhibition of kinase activity at 100 µM in test [3] is over 65%.
